Data on one molecule can be found in article PMC5839991 (Nature structural & molecular biology, 2018).

For test [1], the target named is recombinant human serum albumin from S. cerevisiae, biotin labeled (Homo sapiens, UniProt P02768, biotin (EZ-Link NHS-PEG4-Biotin)). In words: SPR. On the technique in general: Surface plasmon resonance follows binding to a sensor surface in real time, without labels.
Test [2] addresses mouse serum albumin, biotin labeled (Mus musculus, UniProt P07724, biotin (EZ-Link NHS-PEG4-Biotin)). Kind of test: SPR.

One may read the Kd as the free concentration of one partner at which half of the binding sites on the other are occupied at equilibrium, for simple one-to-one binding.

mouse serum albumin, biotin labeled, sequence (P07724 25-608): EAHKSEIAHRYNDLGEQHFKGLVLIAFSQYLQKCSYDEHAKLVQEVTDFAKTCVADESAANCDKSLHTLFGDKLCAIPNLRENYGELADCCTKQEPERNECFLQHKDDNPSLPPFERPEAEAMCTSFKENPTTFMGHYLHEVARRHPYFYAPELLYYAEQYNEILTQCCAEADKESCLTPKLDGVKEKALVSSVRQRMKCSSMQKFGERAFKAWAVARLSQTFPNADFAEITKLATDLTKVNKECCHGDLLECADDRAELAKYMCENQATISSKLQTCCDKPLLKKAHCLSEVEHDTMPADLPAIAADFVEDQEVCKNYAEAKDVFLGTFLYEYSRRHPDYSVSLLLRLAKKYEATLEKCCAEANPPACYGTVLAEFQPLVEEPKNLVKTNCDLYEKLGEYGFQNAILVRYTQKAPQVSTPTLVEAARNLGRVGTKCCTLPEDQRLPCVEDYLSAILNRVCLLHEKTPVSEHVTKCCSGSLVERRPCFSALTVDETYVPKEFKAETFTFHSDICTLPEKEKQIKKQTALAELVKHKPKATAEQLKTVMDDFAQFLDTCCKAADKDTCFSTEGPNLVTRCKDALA

B1: Nb.b201 (VHH)
VHH: QVQLQESGGGLVQAGGSLRLSCAASGYISDAYYMGWYRQAPGKEREFVATITHGTNTYYADSVKGRFTISRDNAKNTVYLQMNSLKPEDTAVYYCAVLETRSYSFRYWGQGTQVTVSS
As for B1, the Kd in test [1] came to 430 nM. Also, in test [2], the binding result is “no binding”.
